Results published in US20200038462A1, “METHODS AND COMPOSITIONS OF OTC CONSTRUCTS AND VECTORS” (priority 2018, published 2020).

B1: CO9-2: hOTC construct; CO9 re-optimized by IDT, SEQ ID NO:10 (nucleic acid)
DNA: GTCGACGCCGCCACCATGCTCTTCAATCTCCGAATACTCCTGAATAATGCGGCATTCAGAAATGGGCACAATTTTATGGTGCGAAATTTTCGATGTGGGCAGCCCTTGCAAAATAAAGTACAACTTAAAGGCAGAGATCTTCTTACGCTCAAAAACTTTACCGGCGAAGAGATTAAGTATATGTTGTGGCTGTCTGCTGACCTTAAATTCCGAATAAAACAGAAAGGCGAATACCTTCCGCTCCTCCAAGGGAAATCTCTTGGGATGATTTTCGAGAAGAGATCTACGCGCACGCGGCTTTCAACGGAAACTGGATTCGCACTCTTGGGCGGCCACCCATGTTTTCTGACTACTCAAGATATTCACTTGGGAGTAAATGAGTCACTTACTGACACGGCAAGAGTGCTCTCTAGCATGGCTGATGCAGTGCTGGCTAGAGTCTATAAACAATCCGACCTGGATACACTCGCCAAGGAAGCTTCAATACCAATAATCAACGGGTTGTCTGACTTGTACCACCCTATCCAAATCTTGGCCGATTATTTGACACTCCAGGAACACTACTCAAGTCTGAAGGGACTTACGCTTAGCTGGATAGGTGATGGTAACAACATCCTTCATAGCATTATGATGTCAGCCGCCAAATTCGGCATGCATCTGCAAGCAGCGACTCCCAAGGGCTATGAGCCTGATGCCTCAGTCACCAAACTGGCGGAGCAGTACGCTAAAGAGAATGGGACGAAGCTTTTGCTGACGAACGATCCCCTGGAGGCGGCTCACGGGGGAAATGTGCTTATCACGGATACCTGGATAAGTATGGGGCAGGAGGAAGAAAAAAAAAAGCGATTGCAAGCCTTTCAAGGTTACCAGGTTACAATGAAAACTGCGAAAGTCGCCGCATCTGACTGGACTTTTCTGCACTGTCTTCCGAGAAAGCCGGAAGAGGTGGACGACGAAGTGTTCTACTCTCCGCGCTCTCTCGTGTTTCCTGAAGCAGAGAACCGAAAGTGGACCATAATGGCGGTAATGGTCAGCCTCTTGACTGATTATTCCCCTCAGCTGCAGAAGCCAAAGTTTTGATAAGAATTC
B2: CO6-1: hOTC construct; CO6 re-optimized by GeneArt, SEQ ID NO:6 (nucleic acid)
DNA: GTCGACGCCGCCACCATGCTGTTCAACCTGCGGATCCTGCTGAACAACGCCGCCTTCAGAAACGGCCACAACTTCATGGTCCGAAACTTCAGATGCGGCCAGCCTCTGCAGAACAAGGTGCAGCTGAAGGGCAGAGATCTGCTGACCCTGAAGAACTTCACCGGCGAAGAGATCAAATACATGCTGTGGCTGAGCGCCGACCTGAAGTTCCGGATTAAGCAGAAGGGCGAGTACCTGCCACTGCTGCAGGGAAAGTCTCTGGGCATGATCTTCGAGAAGCGGAGCACCAGAACCAGACTGAGCACCGAGACAGGCTTTGCCCTGCTCGGAGGACACCCCTGCTTTCTGACAACACAGGATATCCACCTGGGCGTGAACGAGAGCCTGACCGATACAGCCAGAGTGCTGAGCAGCATGGCTGATGCCGTGCTGGCCAGAGTGTACAAGCAGAGCGATCTGGACACCCTGGCCAAAGAGGCCAGCATTCCCATCATCAACGGCCTGAGCGACCTGTATCACCCCATCCAGATCCTGGCCGACTACCTGACACTGCAAGAGCACTACAGCAGCCTGAAGGGACTGACCCTGTCTTGGATCGGCGACGGCAACAACATCCTGCACTCTATTATGATGAGCGCCGCCAAGTTCGGAATGCACCTGCAGGCCGCTACACCCAAGGGCTATGAGCCTGATGCCAGCGTGACAAAGCTGGCCGAGCAGTACGCCAAAGAGAACGGCACAAAGCTGCTGCTGACCAACGATCCCCTGGAAGCTGCCCACGGCGGCAATGTGCTGATCACCGATACCTGGATCTCTATGGGCCAAGAGGAAGAGAAGAAGAAGCGGCTGCAGGCCTTCCAGGGCTACCAAGTGACAATGAAGACCGCCAAGGTGGCCGCCAGCGATTGGACCTTTCTGCACTGCCTGCCTCGGAAGCCTGAAGAGGTGGACGACGAGGTGTTCTACAGCCCTAGAAGCCTGGTGTTCCCCGAGGCCGAGAACAGAAAGTGGACCATCATGGCTGTGATGGTGTCCCTGCTGACCGACTACTCTCCCCAGCTGCAGAAGCCCAAGTTCTGATAAGAATTC
B3: CO9-1: hOTC construct; CO9 re-optimized by GeneArt, SEQ ID NO:9 (nucleic acid)
DNA: GTCGACGCCGCCACCATGCTGTTTAATCTGAGAATCCTGCTGAACAATGCTGCTTTCCGCAATGGGCACAACTTTATGGTCCGAAACTTCCGATGTGGACAGCCTCTGCAGAACAAGGTGCAGCTGAAGGGCCGGGACCTGCTGACCCTGAAGAATTTCACAGGCGAGGAGATCAAATACATGCTGTGGCTGAGCGCCGATCTGAAGTTTAGGATCAAGCAGAAGGGCGAGTATCTGCCACTGCTGCAGGGCAAGTCCCTGGGCATGATCTTCGAGAAGCGGAGCACCCGGACAAGACTGAGCACCGAGACAGGATTCGCACTGCTGGGAGGACACCCATGCTTTCTGACAACACAGGACATCCACCTGGGCGTGAACGAGTCTCTGACCGACACAGCACGGGTGCTGAGCTCCATGGCAGATGCCGTGCTGGCCAGAGTGTACAAGCAGAGCGACCTGGATACCCTGGCCAAGGAGGCCTCCATCCCCATCATCAATGGCCTGTCTGACCTGTATCACCCAATCCAGATCCTGGCCGATTACCTGACCCTGCAGGAGCACTATTCTAGCCTGAAGGGCCTGACACTGAGCTGGATCGGCGACGGCAACAATATCCTGCACAGCATCATGATGTCCGCCGCCAAGTTTGGAATGCACCTGCAGGCAGCAACCCCAAAGGGATACGAGCCCGATGCCTCCGTGACAAAGCTGGCCGAGCAGTATGCCAAGGAGAACGGCACCAAGCTGCTGCTGACAAATGACCCACTGGAGGCAGCACACGGAGGAAACGTGCTGATCACCGATACATGGATCTCTATGGGCCAGGAGGAGGAGAAGAAGAAGCGGCTGCAGGCCTTCCAGGGCTACCAGGTGACCATGAAGACAGCCAAGGTGGCCGCCTCTGATTGGACCTTTCTGCACTGTCTGCCCCGGAAGCCTGAGGAGGTGGACGATGAGGTGTTCTATTCCCCTCGGAGCCTGGTGTTCCCAGAGGCAGAGAATCGCAAGTGGACAATCATGGCCGTGATGGTCTCCCTGCTGACTGACTACTCCCCACAGCTGCAGAAGCCCAAGTTTTGATAAGAATTC

system: HUH7 hepatocellular carcinoma cell line; test: OTC protein expression in transfected HUH7 cells, Western blot; type: cell-based, human; details: FIGS. 14-15
Description: The wt-hOTC was codon-optimized (CO) with different algorithms. The optimization process is aimed at improving translation and stability of the OTC mRNA by changing the nucleotide sequence while keeping the amino acid primary sequence unvaried. The wild-type OTC cDNA sequence and the codon-optimized (CO) LW4 sequence from WO 2015/138357 patent A2 (Wang L., Wilson J. M.) were also synthesized, to be used as comparison control (CO1). The nucleotide sequence of the different CO cDNAs differs with a range of 30-20% from the WT cDNA sequence. The vectors were then packaged into the AAV8 serotype and used to transduce Huh7 cells. Huh7 cells, co-transfected with the OTC constructs and the pGG2-eGFP plasmid (to normalize for transfection efficiency), were used to generate total RNA and proteins. mRNA, protein, and activity levels were analyzed using qRT-PCR and Western blotting.
The human hepatocellular carcinoma cell line HUH7 was used to evaluate the expression levels of AAV8-hOTC-CO constructs. The AAV8-hOTC-CO1 (C01), AAV8-hOTC-CO2 (CO2), AAV8-hOTC-CO3 (CO3), AAV8-hOTC-006 (CO6), AAV8-hOTC-CO7 (CO7), AAV8-hOTC-009 (CO9) construct plasmids, together with a pGFP plasmid as an internal control, were transiently co-transfected in HUH7 cells with Lipofectamine (Lipofectamine 2000, Thermo Fisher Scientific). Twenty-four hours post-transfection, total protein lysates were prepared and analyzed for OTC expression by Western blot analysis.

Molecule | OTC protein expression levels compared to hOTC-wt (in words)
B1 | significantly reduced
B2 | significantly reduced
B3 | significantly reduced
